Laboratory results reported in the DeepSol protein solubility set.

Test: soluble on expression in E. coli; label from the status in PepcDB or PDB records

Soluble on expression in E. coli, not soluble:
MGSDKIHHHHHHVKRFDWYTEIHRLDAEADCRRITEILTTHEFPWDIEQALSLALYRTYAVPSIGQLLAETREFLDRTQRRSDDTALILTEIMRHGFEPGRGRDALRRMNQMHRSYDISNDDYLYVLSTFVVMPVRWINDLGYGWRRLTEHEITANTNYYRLLGKHMGIKEIPETYDEFYELFDSYEIAHFGYSEGGRAVSDATLRLMVDTVPRWQQPVFRKFTMALLDDRLIQAFRYDPPSRFWRTAAHLAMWLRAKIVRFMPPRVEPYRIENNPKIKSYPNGYDPRRIGTFPKGCPVPHDMVTIEIPETGARIPAPGQELAPQGQDARA
MGSDKIHHHHHHVLINQQYTRHGPDYRFGEQVTFLDVKQTFGFSHVRVGRWVTRDESRLAADLVFDSLADLAFILKLPPLKLGLRETVSLAFGHGGQKGVQAHYAPAARELALAKNAGAGALAHEFWHAFDHYIAAKSFKSSSKRFQCASDLWLSDLPIIEHPLNARLSEIFKVTFLSGNGDEPHDYVRRAIALDKKHGMQYFARPTEMMARAFEACIESYDDISNPYLVSGTRFSAMAKEGAYPDEAHRKVIFQALINYFEPLGMALSKHPLG
MGSDKIHHHHHHVLSTANITMQFGPKPLFENISVKFGGGNRYGLIGANGCGKSTFMKILGGDLEPSSGNVMLEPNIRLGKLRQDQFAYEDVRVLDVVMMGHAEMWAAMTERDAIYANPDATDDDYMHAAELEAKFAEYDGYTAEARAGELLLGIGIAIENHNGPMSNVAPGWKLRVLLAQALFSKPDVLLLDEPTNNLDINSIRWLEDVLNQYNSTMIIISHDRHFLNQVCTHMADMDFGTLKVYPGNYDDYMLASTQARERQQNANAKAKERVADLQDFVRRFSANKSKARQATSRLKMIDKIKIEEFKPSSRQNPFIRFEYEKKLHNIAVVAEKISKKYERTIFNDFSISVQPGERIAIIGENGAGKTTLLRSLLGKLELDHGTVKWAENANIGYMPQDTYEEFPDDVTLMEWIDVYRKEGDDEQMVRGTLGRLLFNADDIRKSVKVLSGGEKGRMIWGKLMLGRHNVLLMDEPTNHMDMESIESLQIALDKFEGTLIFVSHDREFVSGLANRIIEVKTDGTLNDFGGNYEDFLLSQGVQ
MGSDKIHHHHHHVMKVLLYSEGKKLFSKSGVGIALKHQMSALDKVGVKYTTNEEDSFDIVHINTIGPGAERVIKKSKKLGIPIIYHTHTTYEDFRNSFTLSNAIAPWLRKRLIKLYSSADFLISPTEYAKKLIMNYGITLPIKAVSNGVDNKKFTRSKSLAESFLSENHIRKPLVVSVGLPFERKGVIDFCQIADTRKDLTFYWFGAKISSLLPAKIRRLLKNPPDNVKFPGFIPQEMIIGPYSACDVFLFPSYEETEGIVVLEALATEAPIVLRDIPVYSEWMKHEENCLKGKDNQEFIKHIDRLLESNNLRKKLSSCGKETALERDLSIIGQKLKNIYLEVLDKKQ
MGSDKIHHHHHHVNELSADVVILGGGLVGMTLAIGLAKAGISSHVVDNSDPAAQTAEGFDGRASAISTASWNLYANLGMADELAPKGCPIEAIAVTDAMKPGRIDFKPGEGDGSLGRMYANRDLRIAMYAAAAREEAITFHTNANVIHRERGEHGVSVTLADGRILKGRLLVGAEGRRSPTRDEAGFTPARWDYGHRAIIAGLTHEKPHGNVAWEVFYPAGPFALLPLLDDEDGSHRSALVWTVAEKDASAVLAMPEPMFLDEVSKRMHEIFGEIRLASPRSSYPLNFHHTARIVEQRLALVGDAAHGMHPIAGQGLNVGLRDVAALVEVLADGVRLGLDVGDAQLLARYERWRAADTFMVATATDVLTRLFGLPGRVPSAIRRLGMAGVQRMGPLKRWFMDEARGMSGDLPKLLRAA
MGSDKIHHHHHHVQVVSISSLKGGVGKTSVTTGLASAALAAGIPTLVVDLDPHADASTALGVQPDEQLDIGRMLKSPRRARLSQNVVTSGWVARENYNGARPAVLDVAVGSAYTGIYDRPDLGRRDLRRLSAVLAGTDKYQLILVDCPPSLNGLTRMAWSASDKVALVAEPGLFSVAGTERTMRAIQLFRQEFAPNLSPAGIIANRVRSGSSEHAFRLAEMQSMFGELLLTPYIPEQANWQQIQGAAHSVHHWPGDSAKNAASLFNTLLDNLMASNDAGSAGALRERSLR
MGSDKIHHHHHHVRFATKFDLLSHIRLNAALTSARFDAEQGLWLLRLENGEQLKASFFICSAGPLSEPRYPDIPGMDTYEGRLFHSARWDHDYPLNGKRVAVIGTAASAVQIIPHIAPLAARLYVCQRSPNWIIPRLNHVYAPWEKALFRLKPIAKTNRFLLYWLHEMNRLSFNPGGFMARIGRELAEWHLRRQVIDPRLRGALRPGYPLGCKRVLLSNDYYPTLMRPNVELIDTPIDRIDPGGIVTRDGQKREVDVIICATGFNVKRMLSVEIRGLQGYRLNEAWAREPKAYQGVTVASFPNLFILLGPNTGQGHTSAILFIEAQVNYALKCIQEIARQQKRFLSVKPEAMNRYNEELQKTLSTSVWAAGCRSWYKTESGKIIGIYPGFSFQYAKQLREPRFEDYVMC
MGSDKIHHHHHHVRNYTYRYLNTIALPMETVRLISRINEYKGKQDLYKQQAPQVLDTLRDVAVIQSTKASNAIEGIVVTESRLHTIMSKSADPADRSEAEIAGYRDVLNLIHASARDIPINANVLLQLHKELYKFVPVEGGRWKNVDNEISESFPDGTRRTRFVPVPAFETPASVQALCDSLRERRQQEDVDPLILTSLFVLDFLSIHPFNDGNGRMSRLLTLLLLYQEGFEVGRYISLEKIVESRKEDYYESLRLSSIHWHQNQQDPFPWVNYLLSTILAAYKELEDRVGLITTGNQNKAGRIRQFVESRITPFTKADVRNACPDVSEATINRLLRELRDEGLIKPSGRGRGAKWIKR
MGSDKIHHHHHHVSCDYFNRGLCQSCRLMSKPVTEQLLEKEARLTHLLGGLPVDERLAPVSGPEFGFRNKAKMVVMGAAHAPVLGIPGPDGQPVDLSHCPLYPQDMQALLLELTSFVRRAGIPPYRVDKAKGELKFILLTRSAVRGEFMLRFVLRSKDAIPRIERELPKLLADFPAIKVVSVNLQPVHMARLEGEEEIFLTQATRLDEVFNGVPLFIRPKSFFQTNPEVASRLYATAAKWVDELSPKSLWDLFCGVGGFGLHCANESLPVTGIEIEAEAIDCAKTSAAAMGLDNLSFAALDSTDFAMGQQAQEVPEVIIVNPPRRGIGEELCERLSAFGPRAIIYSSCNPETLAKDLALISGYRIARVQLFDMFPHSDHFEVLCLLLKEAACASAD
MGSDKIHHHHHHVSDSPLPDSETSAAAEFKVDNCALVLEGGGLRAIYTAGVLDAFLAAGIHFQYLVGVSAGAIYPASYLSRQMGRNLTIQQNFLADKRYMGLKHLLRTGNYVNTDFTYRRMAHELVPYDFDAFASSEAEFKVGAFNCLTGETDFFGMADFADHDTFLEVLIASSSLPFISKPTFIDGTPYLDGGIGAPIPLAQAREDGYKRQVVILTQEQDYRKSAFKAKWLAKRLYRRYPKVASALLARHQVYNQALDDLTKAQADGSALVLQPATPMGLSRLERDVSKVEAVYRRGLSEGEAFIPSLLAFIENC
MGSDKIHHHHHHVSKPHYKTTNWKQYNQALINRGSLTFWIDEDAIAKWKAKVEQPKKGRPRVFSDLAITTALMVKRIFSMPLRALQGFINSVFKLGDIPLSCPHYTCISKRAKTVNIAFKTKTRGAIKHLAIDSTGLKVYGEGEWKVKKHGTDGKRRVWRKLHIAVDTHSHEIIAAELSLSGVTDAEVMPNLLKQTHRKIRNISGDGAYDTKACHEAVRRKRALVLIPPREGAALWEQGHPRNLAVSWQQLHGSNKQWKKRYGYHRRSISETAMYRIKQLLGGTLSMRNYNAQVGETYAMIRALNKLTGLGMPETHYVA
MGSDKIHHHHHHVSRLDQLNDWLHQALQGKPHHLTTASADASFRRYFRVHLADGATLIAMDAPPPQEDCRPFVKVAALFEQAGLNVPKVLAQDVENGFLLLTDLGAQTFLDVLNEDNADTLFRDAIDALVTWQLASRPGVLPAYDEALLRRELCLFPDWYVARHLNVELSESQRSTLENAFSTIVRYNLAQPSVYVHRDYMPRNLMISTPSPGILDFQDAVYGPISYDVASLFKDAFISWQEERVLDGTIRYWEKARKAGLPVRSDFGDFYRDFEWMGLQRHLKVLGIFARIHYRDGKPKYLADTPRFMNYVRQVCVRYGELRPLLRLLDELEKREPQFGYTF
MGSDKIHHHHHHVTPFAQTAAQTDHYDVIVIGAGPSGSVAASLLHQQGKRVLVLEKQHFPRFSIGESLLPCCMQVIAEANMLDAVNQAGYQFKNGAAFNANGRSTYFDFTDKFTPGPGTTFQVERGDFDKLLADTAASQGVEIRYGQRVDAVDLSHNPRLTISDEQGASYELSADYLLDASGFGRVLPRLLDLERPSNLPSRTAIFTHIQDNIDSVDMGDYHFDRNKILISVHPDNRDIWYWLIPFSNGRCSLGVVGEPHLLGQDADLEATNLEATLIRLVREEPRLKQLLSRAEIIRKPAKLAGYSANVSTLASDKFALLGNAGEFLDPVFSSGVTIAMQSASIAAKCVVKQLNGESVDWQTEYAQPLMRGVDTFRTYVQAWYDGRFQDVIFYQDPNPKIKQMICSILAGYAWDESNPFVAESERRLNMVVELCR
MGSDKIHHHHHHVVLDTDLASIQESRNLVQKAKEAQLHLAHFNEQQIDKILASIVAAVEENAEGLARMACQETEYGIVEHKIAKNLFAARDVYESTKHIKTIGTISEDPDRKVIRYAAPMGVLVGITPRTNPTSTIIHNALCAIKGANAIVFSPHPFAVQCGCATASLINEAAVKAGAPDGVCSCLSMTSLQASHELMHHPDVAAIIATGGPGLVKSAYSAGKPAFGVGSGNVPVFIERSADIKQAVNDIMVSKTFDNGMICASEQAILADQPIKDEVIKELQNQGAYFLSPEEVQKVGRVVIHANGSMNNALVGQSPAVIAQRAGISIPADTALLIAPMEGYGKDYPLSHEKLTTVLGFYVVQDWKEACHLSIELLKLGGIGHSCAIHSQNEQVIREFLAKPVFRIIVNTPSALGGIGQTTGIMPSLTLGCGTWGGSSISENLGPQHLINIKHLTYGLKKVAFHKVPATQGNVSPLLPPTKATSWDIKSDDIDDVVKQVLQQLKIG
MGSDKIHHHHHHVVNAIEVSDISKQFVLRHTRSIKEAVVWLAKGRKGDLSEKFHALKNVTLEVKTGETVALLGLNGSGKSTLLKHISGVMLPDSGTVRTRGRVAGLIEVGAGFHPDLSGRDNVYLNGAILGMTEQQVNDRFDDIVEFSETGQFIDTEVKFYSSGMYLRLAFSVAVHTDPEVFLIDEILAVGDEPFQRKCIDKIQELARNGKTLVVVSHDLDLVSRICARGILLEHGNVKFDGSIHDAVALLRA
MGSIWELDFYSRPILDENQKKVWEVVICESPLDIRTKTDSLFRYAQYCPSTEVNSAWLRTAIQEAISKAGKAPIKIRFFRRQMNNMIVKACEDAGIPALPSRRTLALNQWLKQRMEEVYPQEPGYQGVTTPSVRLDSPLPQRLPDALEGQQWVFVSLSAADLAEMPDWEIGFSEAFPLDFVQVSPETRIPGVLIFSPRALPIAGWMSGLELAFLRVDTSQGMRLVLETGATESWILANIKNPTTVQEARGFEEAKQKANGVHFIGVQSNPEAESFAGFWLLQELGVLEHHHHHH
